{"source": "patent US20240401071A1", "target": "Rubisco activase (Arabidopsis thaliana) (UniProt P10896)", "sequence (P10896 59-474 limits assumed)": "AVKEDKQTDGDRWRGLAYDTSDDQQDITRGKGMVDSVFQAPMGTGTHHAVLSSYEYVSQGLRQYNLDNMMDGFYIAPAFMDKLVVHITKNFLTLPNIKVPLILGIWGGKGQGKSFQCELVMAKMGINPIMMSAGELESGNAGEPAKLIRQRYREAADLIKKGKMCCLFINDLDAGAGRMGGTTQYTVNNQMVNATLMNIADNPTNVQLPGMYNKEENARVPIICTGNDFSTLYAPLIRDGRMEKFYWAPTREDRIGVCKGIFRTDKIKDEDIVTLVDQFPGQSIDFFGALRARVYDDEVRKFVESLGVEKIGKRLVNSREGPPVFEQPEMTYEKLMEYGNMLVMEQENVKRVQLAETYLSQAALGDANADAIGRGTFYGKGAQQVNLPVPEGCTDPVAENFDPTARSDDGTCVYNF", "assay": "GFP-bead immunoprecipitation of PRL-1-eGFP from Arabidopsis leaves, mass spectrometry (IPMS); interaction direct or indirect"}
{"substance": "PRL-1-eGFP (C-terminal GFP fusion with PRL-1, ribulose bisphosphate carboxylase/oxygenase large subunit-related, Potri.012G062600)", "values": [{"measurement": "fold abundance in the dark versus light (co-precipitated protein)", "value": 4, "unit": "fold"}]}
